The test concerns the target HLA-DQ3.1 (DQA1*0301/DQB1*0310), purified from PF cells (human) (UniProt P01909). As to the kind of experiment: 125I-peptide inhibition, purified class II.

As usually defined, the IC50 is the point on the concentration scale where inhibition reaches its midpoint. A higher IC50 goes with a need for much substance.

Where only a bound is given, the exact number is not on record here.

Substance lambda rep 12-26 (peptide) displayed an IC50 of more than 10 µM.

For the origin of these results see patent publication US6413935.
